Drawing on doi:10.1101/609255, this text covers stoichiometry N for one substance.

The target of the experiment is Light-Harvesting Complex II (LHCII) (spinach). As to the kind of experiment: native gel or EMSA. Background: A gel shift assay detects complexes by their altered migration in electrophoresis.

As usually defined, the stoichiometry N is the number of molecules, sites or subunits per partner or assembly. The substance Light-Harvesting Complex II (LHCII) gave a stoichiometry N of 3.
